Assay results published in the supplement of paper PMC7125110.
± gives the standard error. This sample holds only a part of the variants without activity.

B1: glmS ribozyme (parent)
chain: AUAAAAGCGCCAGAACUACAGAAAUGUAGUUGACGAGGAGGAGGUUUAUCGAAUUUUCGGCGGAUGCCUCCAAA

Variants of: B1
Assay: self-cleavage kobs at 2500 uM GlcN6P; higher = faster cleavage; RNA array
Conditions: with glucosamine-6-phosphate
Method in brief: (§1)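 Over ~14 h at 37 °C, tiles were imaged as glucosamine-6-phosphate (40 μM to 10 mM) in HEPES/KCl/Mg(OAc)2 buffer flowed across sequenced MiSeq chips. The chips carried barcoded ribozyme variants transcribed in situ by E. coli RNA polymerase and tracked with a hybridised Cy3 probe. After normalisation to baseline and to non-cleaving reference variants, one- or two-exponential decay fits of per-tile medians gave kobs. kcat and KM followed from weighted Michaelis–Menten fits across concentrations.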

| Variant | self-cleavage kobs at 2500 uM GlcN6P [s⁻¹] |
| --- | --- |
| A6G A33C U46G | < 1e-05 |
| G9U G38C U54G G62C | < 1e-05 |
| A15U A52U C67G | 0.000122 ± 3.6e-05 |
| A6G A52C U65G | < 1e-05 |
| G35C G38U G43U | < 1e-05 |
| A14C G35A A52G | < 1e-05 |
| A6U U54G G66C C67U | < 1e-05 |
| A6G G7A C8U C61U | < 1e-05 |
| A12C G66U C70A | 0.000107 ± 2.6e-05 |
| C16G U54C C70U | 0.00152 ± 0.00038 |
| G13A U46C G60A | < 1e-05 |
| G38A A42C U56G | < 1e-05 |
| C10G C11A U30C A36C G37U C70A C71U | 8.35e-05 ± 3.8e-05 |
| A42U G59U C61G A64U C68A C70G | < 1e-05 |
| G7C C34A U57C G63C | < 1e-05 |
| G9A G44U C68G C70G | < 1e-05 |
| G35C A52C C58U | < 1e-05 |
| A15C U31C C71A | 0.000185 ± 3.9e-05 |
| A12U G41U U46C | 9.28e-05 ± 3.6e-05 |
| A12C G40U U54A | 0.000324 ± 6.9e-05 |
| A14C C16U G40C G44A G60A | < 1e-05 |
| A6G G60A C67G | < 1e-05 |
| C11U G29A U30G U55A G63C A64G | < 1e-05 |

| Variant | self-cleavage kobs at 2500 uM GlcN6P [s⁻¹] |
| --- | --- |
| C8U G13A G51A | < 1e-05 |
| C34G G41U A42U | < 1e-05 |
| G21U G29C A42G | 0.000483 ± 0.00016 |
| A15U G29C G40U | 3.13e-05 ± 1.2e-05 |
| A12G A14C A33U C34G G38U | < 1e-05 |
| G40U A64G C71A | 0.00288 ± 0.0008 |
| U47C A52U A64G | 3.84e-05 ± 1.6e-05 |
| C34G A42C G63C U65G | < 1e-05 |
| G13C A14G C68U | 8.88e-05 ± 2.7e-05 |
| A12C U55A U69C | 0.000484 ± 0.00011 |
| G13U U55G C67A | 8.05e-05 ± 1.9e-05 |
| G7U A39G U56G C70A | < 1e-05 |
| G9C C11U G29C G59C | < 1e-05 |
| G32A U45C C71U | 7.08e-05 ± 2.9e-05 |
| A15C G37A U65G | 8.59e-05 ± 2.6e-05 |
| U30G U57A G60U | < 1e-05 |
| C8G G51C U54G | < 1e-05 |
| A6G A33G U54A U56C | < 1e-05 |
| A14C C16A G63U | < 1e-05 |
| A33C G38C A48G U56C | < 1e-05 |
| G13A G32C U45G | 4.68e-05 ± 1.9e-05 |
| A33C A53G U55G | 0.000103 ± 2.8e-05 |
| A6G A14C G38C | < 1e-05 |

| Variant | self-cleavage kobs at 2500 uM GlcN6P [s⁻¹] |
| --- | --- |
| A33U U55C G60C | < 1e-05 |
| A6G A12G U54G A64U C70G | < 1e-05 |
| A6C A48U C61U C70G | < 1e-05 |
| C8G G63U U65C | < 1e-05 |
| G29C U30C G32U A52C | < 1e-05 |
| A48G U56A U69G | 7.7e-05 ± 2.2e-05 |
| A6G G44A A52U C61U G62A C70G C71U | < 1e-05 |
| C16U U46G U55C | 0.00261 ± 0.00068 |
| A6C U46C U49C G63A | < 1e-05 |
| C8A C16U U56A | < 1e-05 |
| C11U A12G U31G | 0.000738 ± 0.00012 |
| G7C U30A G44A | < 1e-05 |
| G7A G41C C67U | < 1e-05 |
| G40U U47G G51C U65A | < 1e-05 |
| A6C G29C G51U A53G | < 1e-05 |
| A15U G38U U69G | 0.000183 ± 4.2e-05 |
| A48U U69A | 2.8e-05 ± 1.3e-05 |
| C10A C16G U31C G37C C58A G59U | < 1e-05 |
| C34A A48G U57C | < 1e-05 |
| G26U U65A | 0.00219 ± 0.00042 |
| C34A G44C G59U G63A | < 1e-05 |
| C11G U30G U49A | < 1e-05 |
| A12G U55A U69G | 0.000115 ± 3e-05 |

| Variant | self-cleavage kobs at 2500 uM GlcN6P [s⁻¹] |
| --- | --- |
| C16U C34A G41A C68U C71A | < 1e-05 |
| A39U G41U C50G | < 1e-05 |
| A15C A39U G59C U69C | < 1e-05 |
| C8G G29U U31A | < 1e-05 |
| C11A U47G C61G | < 1e-05 |
| C11U C16G G43A | < 1e-05 |
| A6C U55G G59U C61A A64C | < 1e-05 |
| U47G C58A C68A | 0.000116 ± 2.9e-05 |
| U46G G51U G59A | < 1e-05 |
| C8U C11G C58A | < 1e-05 |
| G7U A12U G44U | < 1e-05 |
| C16G G44U C70A | < 1e-05 |
| C8U G60U C61G C70G | < 1e-05 |
| A6U U45G A48U | < 1e-05 |
| A12G G38C U45A C67A | < 1e-05 |
| U46A A48U G51C | < 1e-05 |
| C11U G13U U30C G44A | < 1e-05 |
| U31C G40U A42U G63C | < 1e-05 |
| G29C A39C A48U U49C U57A G60A C61A C67A | < 1e-05 |
| A12C A36G G40U G43U U54G | < 1e-05 |
| C11U A42G C71U | 0.0013 ± 0.0004 |
| A14U U30A A39C | 2.93e-05 ± 1.5e-05 |
| A14C G43C G51A U56G | < 1e-05 |

| Variant | self-cleavage kobs at 2500 uM GlcN6P [s⁻¹] |
| --- | --- |
| G40U U54G C70G C71A | 6.39e-05 ± 1.8e-05 |
| A52G U54C C70U C71G | 7e-05 ± 2.3e-05 |
| U69C C70U C71G | 3.82e-05 ± 1.3e-05 |
| U47A G62C C68G C71G | 0.000178 ± 4.9e-05 |
| C8A G35C A53U G60A | < 1e-05 |
| G37U U45G U65G | < 1e-05 |
| G9A C16G A33C G51U U54A C58U | < 1e-05 |
| G32U C34A G43C C71G | < 1e-05 |
| G9C G66C | < 1e-05 |
| G37U U56C C67A | < 1e-05 |
| G32C A33C U47C A64C | < 1e-05 |
| G7A G40A C71A | < 1e-05 |
| U30C A53U G66U U69G | 0.000128 ± 2.7e-05 |
| U31C U45A U57C | 4.12e-05 ± 1.4e-05 |
| A12G A39G C67A | 0.000177 ± 3.7e-05 |
| G7C A48U A64U C67U | < 1e-05 |
| A6U C10A U49C C70G C71G | 0.00019 ± 8.2e-05 |
| A53G C58U | 1.96e-05 ± 7.8e-06 |
| G38A A39C C50G C68A | 5.88e-05 ± 2.8e-05 |
| G29A A48U U69A | < 1e-05 |
| A6U G37C A64G | < 1e-05 |
| A12G U56A U57C | < 1e-05 |
| A42G A48U A52G C70A | < 1e-05 |

| Variant | self-cleavage kobs at 2500 uM GlcN6P [s⁻¹] |
| --- | --- |
| C34U A36C A39U | < 1e-05 |
| A14U U30C A53C | < 1e-05 |
| A14U G29U A48U A53U G62U | < 1e-05 |
| C34U G38U A42U G63U | < 1e-05 |
| G9C U30A G44U G59U C61U G66C C70U | < 1e-05 |
| A33G A53C C58A | < 1e-05 |
| C8G A33C U56C G63U | < 1e-05 |
| C8G A42C U45C C71G | < 1e-05 |
| A52U C61G G63C G66A | < 1e-05 |
| A6G G7A C16G U49C A53U C67U | < 1e-05 |
| U30G G43C A48C | < 1e-05 |
| G7C G38A U49C A53C C61A | < 1e-05 |
| C8G U30C A36C U69C | < 1e-05 |
| U30G A53U C58G | 0.000116 ± 3.9e-05 |
| G40U U46C A64G | 9.83e-05 ± 2.4e-05 |
| A15U C58G C68U | 6.36e-05 ± 2.9e-05 |
| C10U A36U G51C A53C | < 1e-05 |
| A39C A53G C58A C61A | < 1e-05 |
| U30A G38A A52G | < 1e-05 |
| C8A G32C C34G A42U C61A | < 1e-05 |
| G7A A53U G59A C70U | < 1e-05 |
| G37C G44C C67U | < 1e-05 |
| U30G G59C U65G | < 1e-05 |

| Variant | self-cleavage kobs at 2500 uM GlcN6P [s⁻¹] |
| --- | --- |
| G32A A42U U46C | < 1e-05 |
| G29U U47A U69G | 7.38e-05 ± 1.7e-05 |
| A14C A52G | 0.000215 ± 3.3e-05 |
| A15G U30C G51U U65C | < 1e-05 |
| C16A G40U U57A C67U | < 1e-05 |
| G38C U46G G59A | < 1e-05 |
| C8A G29C A42G U45C U46G | < 1e-05 |
| C34G G38A C70G | 5.16e-05 ± 2.4e-05 |
| C8A G29C G37C A39U G43A U45G G51A | < 1e-05 |
| A14G A36C U54C | < 1e-05 |
| G13A G51C C67G | < 1e-05 |
| C11U C50A G51U C61A | 9.9e-05 ± 3.3e-05 |
| G37C C50G U54G G63U A64U | 6.2e-05 ± 3e-05 |
| A12G U45A C70G | 0.000143 ± 3.9e-05 |
| A6U C58G C70A | 0.00016 ± 5.2e-05 |
| G9U U31G G66U C71U | < 1e-05 |
| A15G A36G G44U G60C | < 1e-05 |
| C16G G29A G37A U49G C50U | < 1e-05 |
| C34U G44U U49A | < 1e-05 |
| C34A G43A U54G | < 1e-05 |
| G7U G62C G63C U69C | < 1e-05 |
| A12C G38A U49C A53C | < 1e-05 |
| A15G G59U G63U | < 1e-05 |

Variants of: B1
Assay: self-cleavage kobs at 10000 uM GlcN6P; higher = faster cleavage; RNA array
Conditions: with glucosamine-6-phosphate
Method in brief: as §1

| Variant | self-cleavage kobs at 10000 uM GlcN6P [s⁻¹] |
| --- | --- |
| A6G A33C U46G | < 1e-05 |
| A6G A52C U65G | < 1e-05 |
| G35C A52C C58U | < 1e-05 |
| A33C A53G U55G | 0.000163 ± 2.9e-05 |
| C8G G63U U65C | < 1e-05 |
| C11U A12G U31G | 0.00126 ± 0.0003 |
| G40U U47G G51C U65A | < 1e-05 |
| A14C G43C G51A U56G | < 1e-05 |
| G32U C34A G43C C71G | < 1e-05 |
| A53G C58U | 0.000105 ± 9.8e-06 |
| A14U G29U A48U A53U G62U | < 1e-05 |
| C8G A42C U45C C71G | < 1e-05 |
| C8G U30C A36C U69C | < 1e-05 |
| A14C A52G | 0.000282 ± 5.3e-05 |
| C16A G40U U57A C67U | < 1e-05 |
| C8A G29C A42G U45C U46G | < 1e-05 |
